What was measured:
α-synuclein [1] = biological target: T1, α-synuclein (human, UniProt P37840 1-140); experiment: SPR
α-synuclein [2] = biological target: T1, α-synuclein; experiment: SPR; remark: listed apart in the source

koff (α-synuclein [1]): 0.00118 s⁻¹
Kd (α-synuclein [2]): 5.32 nM
B1: prolyl oligopeptidase (POP) (enzyme)
chain: MLSLQYPDVYRDETAVQDYHGHKICDPYAWLEDPDSEQTKAFVEAQNKITVPFLEQCPIRGLYKERMTELYDYPKYSCHFKKGKRYFYFYNTGLQNQRVLYVQDSLEGEARVFLDPNILSDDGTVALRGYAFSEDGEYFAYGLSASGSDWVTIKFMKVDGAKELPDVLERVKFSCMAWTHDGKGMFYNSYPQQDGKSDGTETSTNLHQKLYYHVLGTDQSEDILCAEFPDEPKWMGGAELSDDGRYVLLSIREGCDPVNRLWYCDLQQESSGIAGILKWVKLIDNFEGEYDYVTNEGTVFTFKTNRQSPNYRVINIDFRDPEESKWKVLVPEHEKDVLEWIACVRSNFLVLCYLHDVKNILQLHDLTTGALLKTFPLDVGSIVGYSGQKKDTEIFYQFTSFLSPGIIYHCDLTKEELEPRVFREVTVKGIDASDYQTVQIFYPSKDGTKIPMFIVHKKGIKLDGSHPAFLYGYGGFNISITPNYSVSRLIFVRHMGGILAVANIRGGGEYGETWHKGGILANKQNCFDDFQCAAEYLIKEGYTSPKRLTINGGSNGGLLVAACANQRPDLFGCVIAQVGVMDMLKFHKYTIGHAWTTDYGCSDSKQHFEWLVKYSPLHNVKLPEADDIQYPSMLLLTADHDDRVVPLHSLKFIATLQYIVGRSRKQSNPLLIHVDTKAGHGAGKPTAKVIEEVSDMFAFIARCLNVDWIP

Reference: article PMC7355856 (2020)
